Laboratory results published in publication PMC6663966.

Experiments:
Assay in all cases: purified protein
Conditions in all cases: HEPES buffer supplemented with zinc; room temperature
[1] = test system: CC(=O)OCC1=C(C(=O)O)N2C(=O)[C@@H](NC(=O)Cc3cccs3)[C@H]2SC1
[2] = test system: CC(C)(O/N=C(\C(=O)N[C@@H]1C(=O)N2C(C(=O)[O-])=C(C[n+]3ccccc3)CS[C@H]12)c1csc(N)n1)C(=O)O
[3] = test system: CC1(C)S[C@@H]2[C@H](NC(=O)Cc3ccccc3)C(=O)N2[C@H]1C(=O)O
[4] = test system: CCN1CCN(C(=O)N[C@@H](C(=O)N[C@@H]2C(=O)N3[C@@H]2SC(C)(C)[C@@H]3C(=O)O)c2ccccc2)C(=O)C1=O
[5] = test system: CO/N=C(\C(=O)N[C@@H]1C(=O)N2C(C(=O)O)=C(COC(C)=O)CS[C@H]12)c1csc(N)n1
[6] = test system: CO/N=C(\C(=O)N[C@@H]1C(=O)N2C(C(=O)[O-])=C(C[N+]3(C)CCCC3)CS[C@H]12)c1csc(N)n1
[7] = test system: CO[C@@]1(NC(=O)Cc2cccs2)C(=O)N2C(C(=O)O)=C(COC(N)=O)CS[C@@H]21
[8] = test system: C[C@@H](O)[C@H]1C(=O)N2C(C(=O)O)=C(SCCN=CN)C[C@H]12
[9] = test system: C[C@@H](O)[C@H]1C(=O)N2C(C(=O)O)=C(S[C@@H]3CN[C@H](C(=O)N(C)C)C3)[C@H](C)[C@H]12
[10] = test system: C[C@@H](O)[C@H]1C(=O)N2C(C(=O)O)=C(S[C@@H]3CN[C@H](C(=O)Nc4cccc(C(=O)O)c4)C3)[C@H](C)[C@H]12
[11] = test system: C[C@H]1[C@H](NC(=O)/C(=N\OC(C)(C)C(=O)O)c2csc(N)n2)C(=O)N1S(=O)(=O)O

In the case of “PAN-1 (Pseudobacteriovorax antillogorgiicola)”, the Km [1] is reported as 32.2 µM, the kcat [1] is reported as 6.9 s⁻¹ and the kcat/Km [1] is reported as 214000 M⁻¹ s⁻¹. For the same substance, the Km [2] was 144.4 µM, the kcat [2] was 8.1 s⁻¹ and the kcat/Km [2] was 56000 M⁻¹ s⁻¹. The Km [3] was 161 µM, the kcat [3] was 23.6 s⁻¹ and the kcat/Km [3] was 146000 M⁻¹ s⁻¹. It also gave a Km [4] of 1074.2 µM, a kcat [4] of 73.6 s⁻¹ and a kcat/Km [4] of 68000 M⁻¹ s⁻¹. The Km [5] was 245.7 µM, the kcat [5] was 3.9 s⁻¹ and the kcat/Km [5] was 16000 M⁻¹ s⁻¹. It also gave a kcat [6] of less than 0.01 s⁻¹, a Km [7] of 13.3 µM and a kcat [7] of 1.9 s⁻¹. For the same substance, the kcat/Km [7] was 143000 M⁻¹ s⁻¹, the Km [8] was 470.5 µM and the kcat [8] was 43.8 s⁻¹. The kcat/Km [8] was 93100 M⁻¹ s⁻¹, the Km [9] was 386 µM and the kcat [9] was 22.9 s⁻¹. For the same substance, the kcat/Km [9] was 59000 M⁻¹ s⁻¹, the Km [10] was 368.5 µM and the kcat [10] was 2.9 s⁻¹. The kcat/Km [10] was 7800 M⁻¹ s⁻¹ and the kcat [11] was less than 0.01 s⁻¹.
